Tested on: ZFP-TF 8982-KRAB
Experiment: cell_activity
Details: rat DRG neurons, lentiviral; Nav1.8 mRNA vs GFP control; which of SEQ 2 (GAA) or SEQ 3 (CAA) is the rat site is not stated

**Q.** How did the activity (fold repression) turn out when “GAAGAAGAATGAGAAGATG (double strand) [Nav1.8 target site (GAA variant)]” was run?
**A.** 10
